Columns and labels:
[1] = tested on: pdt-tagged sfGFP
[2] = tested on: cell-free protein synthesis; experiment: Titration of analyte against an unregulated reporter plasmid (pT7-sfGFP) in a cell-free reaction; format: biochemical, E. coli; conditions: 100 μM CuSO4
Description: A series of tuning experiments are next used to optimize the sensor. First, the optimal concentration of the aTF (CueR) is found for the non-cascaded sensor (e.g., pCue-sfGFP) through a series of ratiometric titrations between the aTF-enriched extract and the blank extract in both the presence and absence of analyte (see e.g., the data in FIG. 7). This experiment is an isothermal cell-free gene expression reaction held at 30° C. in a plate reader for […] using an established set of physiochemical conditions to maximize protein production in general. It may also be necessary to determine the concentration of analyte that saturates the cell-free sensor without inhibiting transcription and translation in vitro, which can be done with a simple titration of analyte against an unregulated reporter plasmid (e.g., pT7-sfGFP).

[3] = tested on: PbCl2; experiment: Hand-validation of top PbrR variants from the SSM library screen; format: biochemical, E. coli; conditions: top 10 variants with the highest fold change from each lead concentration
Description: The top 10 variants with the highest fold change from each lead concentration were hand-validated to validate the results from the SSM library screen.

[4] = tested on: lead; experiment: Enriched extract PbrR lead sensors; format: biochemical, E. coli; conditions: FIG. 40 and 41
Description: Enriched extract is made by pre-expressing the transcription factor in the E. coli strain before lysing to generate the extract. […] It was also determined that a catechol reporter can be used for improved sensor output. This works by having the PbrR transcription factor bind to PbrO and drive expression of an enzyme that catalyzes a colorimetric change in catechol.

## mf-Lon
[1]
  decay of sfGFP signal (protein degradation) on mixing extracts: Increasing the concentration of mf-Lon and supplying additional ATP (a co-substrate for the reaction) results in some signal decay

## O=S(=O)([O-])[O-].[Cu+2] [CuSO4]
[2]
  effect on cell-free protein synthesis: shuts down cell-free protein synthesis

B1: M60F (protein)
chain: MNIQIGELAKRTACPVVTIRFYEQEGLLPPPGRSRGNFRLYGEEHVERLQFIRHCRSLDFPLSDVRTLLSYRKRPDQDCGEVNMLLDEHIRQVESRIGALLELKHHLVELREACSGARPAQSCGILQGLSDCVCDTRGTTAHPSD
modifications: Cupriavidus metallidurans
[3]
  behaviour in the hand-validated SSM results: bind the promoter regardless of whether or not the ligand (lead) is present

B2: M60L (protein)
chain: MNIQIGELAKRTACPVVTIRFYEQEGLLPPPGRSRGNFRLYGEEHVERLQFIRHCRSLDLPLSDVRTLLSYRKRPDQDCGEVNMLLDEHIRQVESRIGALLELKHHLVELREACSGARPAQSCGILQGLSDCVCDTRGTTAHPSD
modifications: Cupriavidus metallidurans
[3]
  behaviour in the hand-validated SSM results: promising

B3: G128I, D64K, M60L, and P61N: quadruple variant of PbrR (SEQ ID NO: 47) (protein)
chain: MNIQIGELAKRTACPVVTIRFYEQEGLLPPPGRSRGNFRLYGEEHVERLQFIRHCRSLDLNLSKVRTLLSYRKRPDQDCGEVNMLLDEHIRQVESRIGALLELKHHLVELREACSGARPAQSCGILQILSDCVCDTRGTTAHPSD
modifications: Cupriavidus metallidurans
[4]
  lead detection in enriched extract: can detect lead at the limit of detection

Reference: patent publication US20260133210A1, “CELL-FREE BIOSENSORS FOR IN VITRO DETECTION OF TARGET MOLECULES” (priority 2022, published 2026)
